Data: publication PMC2777681

Tests used:
[1] = target: full-length purified recombinant EWS-FLI1; assay: SPR
[2] = target: full-length purified recombinant EWS-FLI1; assay: co-IP

PPPLDAVIEA [E9R peptide, Q08211 823-832]
response units at 32 μM E9R [1]: 13 R.U.
response units at 32 μM E9R with 10 μM YK-4-279 [1]: 5 R.U.
response units at 64 μM E9R [1]: 17 R.U.
response units at 64 μM E9R with 10 μM YK-4-279 [1]: 7 R.U.
percent of the GST-RHA(647-1075)/EWS-FLI1 association left with 0.1 μM E9R [2]: 50%
